The values that follow come from patent US20260242467A1.

For the assay, the target named is NKG2A (human) (UniProt P26715). The assay is described as follows: flow cytometry on primary NK cells, 0 µM mabkine control of the competition assay.
Chain of UniProt P26715 (P26715 whole entry): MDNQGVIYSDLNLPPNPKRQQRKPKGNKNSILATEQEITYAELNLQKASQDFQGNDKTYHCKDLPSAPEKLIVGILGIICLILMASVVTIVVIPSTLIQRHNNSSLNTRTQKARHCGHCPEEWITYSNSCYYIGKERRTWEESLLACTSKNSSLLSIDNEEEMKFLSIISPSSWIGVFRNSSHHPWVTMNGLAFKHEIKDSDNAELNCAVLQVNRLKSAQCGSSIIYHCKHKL

As to “anti-NKG2A (S19004C) from Biolegend (antibody)”, the % of CD56+ cells stained (without mabkine) is 26.5%.
